Biological target: CD19 CAR (4G7-CAR) encoded by Construct 1, expressed on transfected HEK293 cells
Test: flow cytometry, HEK293 cells transfected with Construct 1, biotinylated CD19 then streptavidin-PE; unstained 17.4, streptavidin-PE only 18.5

Chain of CD19 CAR (4G7-CAR) encoded by Construct 1, expressed on transfected HEK293 cells (chain, as listed by the source limits assumed): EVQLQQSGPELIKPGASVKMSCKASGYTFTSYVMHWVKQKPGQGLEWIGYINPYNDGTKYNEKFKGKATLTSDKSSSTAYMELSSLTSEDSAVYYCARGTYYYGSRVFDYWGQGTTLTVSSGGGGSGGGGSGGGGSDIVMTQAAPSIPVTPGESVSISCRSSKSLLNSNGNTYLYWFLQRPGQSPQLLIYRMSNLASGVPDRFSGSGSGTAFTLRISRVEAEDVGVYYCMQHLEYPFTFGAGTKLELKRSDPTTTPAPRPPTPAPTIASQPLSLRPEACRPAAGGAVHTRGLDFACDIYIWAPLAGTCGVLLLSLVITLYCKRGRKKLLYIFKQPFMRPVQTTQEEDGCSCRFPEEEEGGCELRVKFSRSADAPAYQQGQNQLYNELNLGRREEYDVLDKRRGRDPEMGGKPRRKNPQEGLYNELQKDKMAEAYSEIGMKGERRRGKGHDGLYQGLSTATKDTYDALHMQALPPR

Substance: biotinylated CD19 (Acro CD9-H8259, Acro Biosystems) (from UniProt P15391 20-291)
- PE (CD19) flow cytometry value: 33.3
